In patent US20250019439A1 (Adimab, published 2025):

How the values were obtained:
[1] = molecular target: T1, ADI-67445; assay: SPR Carterra avidity, yeast anti-ID
T1 construct: anti-CD3 antibody made in CHO cells, captured by anti-human Fc
Method: (§1) Kinetic analysis was conducted at 25° C. in an HBSTE running buffer system (Carterra Cat #3630) using a Carterra LSA (Carterra USA, Salt Lake City, UT). The sample compartment was maintained at 20° C. for the duration of each experiment.
(§2) For antibody capture experiments, a goat anti-human Fc antibody (Jackson ImmunoResearch) was covalently coupled to an HC30M sensor chip surface via standard amine coupling (1:1 EDC:NHS) and then blocked with ethanolamine (1.0 M, pH 8.5). Covalent coupling steps were performed in 25 mM MES buffer (Carterra, Cat #3625) plus 0.05% Tween20. The anti-CD3 antibodies (100 nM in running buffer) were flowed over discrete regions of interest on the chip surface for 5 minutes. […] Dissociation of the anti-idiotype antibodies was monitored for 300s. Several blank buffer samples were injected over the entire chip surface at the start of each non-regenerative kinetic cycle. The preceding blank buffer injection was used for blank surface subtraction. At the end of each non-regenerative kinetic cycle, all surfaces were regenerated via two 30s injections of 10 mM glycine, pH 1.7.
(§3) For data processing and fitting, sensorgrams were double reference subtracted with a baseline drift correction of 4 RU. Sensorgrams were y-aligned and baseline corrected, filtered and cropped to include only the association and dissociation steps. Data was fitted to a 1:1 binding model using Carterra Kinetics Data Analysis software version 1.7.1.3055.

[2] = molecular target: T2, ADI-70330; assay: SPR Carterra avidity, yeast anti-ID
T2 construct: anti-CD3 antibody made in CHO cells, captured by anti-human Fc
T2 sequence (VH, as listed by the source limits assumed, chain 1 of 2): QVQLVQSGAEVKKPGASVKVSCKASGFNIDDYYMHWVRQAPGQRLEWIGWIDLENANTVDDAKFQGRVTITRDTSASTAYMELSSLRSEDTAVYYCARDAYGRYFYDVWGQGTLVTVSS
T2 sequence (VL, as listed by the source limits assumed, chain 2 of 2): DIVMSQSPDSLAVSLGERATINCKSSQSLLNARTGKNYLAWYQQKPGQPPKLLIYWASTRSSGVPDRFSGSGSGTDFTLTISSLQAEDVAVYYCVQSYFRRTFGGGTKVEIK
Method: as §1, §2, §3

[3] = molecular target: T3, ADI-74967; assay: SPR Carterra avidity, yeast anti-ID
T3 construct: pH-dependent anti-CD3 antibody made in CHO cells
Method: as §1, §2, §3

[4] = molecular target: T4, ADI-70326; assay: SPR Carterra avidity, yeast anti-ID
T4 construct: anti-CD3 antibody made in CHO cells, captured by anti-human Fc
T4 sequence (VH, as listed by the source limits assumed, chain 1 of 2): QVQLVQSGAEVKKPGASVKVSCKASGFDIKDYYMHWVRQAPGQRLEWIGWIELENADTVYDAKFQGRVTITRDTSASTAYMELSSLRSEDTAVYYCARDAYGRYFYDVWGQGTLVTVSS
Method: as §1, §2, §3

[5] = molecular target: T5, ADI-26916 IgG; assay: SPR Carterra avidity, yeast anti-ID
T5 construct: anti-CD3 IgG
Method: as §1, §2, §3

[6] = molecular target: T6, CTL-62223; assay: SPR Carterra avidity, yeast anti-ID
T6 construct: also called mosunetuzumab
Method: as §1, §2, §3

[7] = molecular target: T7, ADI-67450; assay: SPR Carterra avidity, yeast anti-ID
T7 construct: anti-CD3 antibody made in CHO cells, captured by anti-human Fc
Method: as §1, §2, §3

[8] = molecular target: T8, ADI-74965; assay: SPR Carterra avidity, yeast anti-ID
T8 construct: pH-dependent anti-CD3 antibody made in CHO cells
T8 sequence (VH, as listed by the source, chain 1 of 2): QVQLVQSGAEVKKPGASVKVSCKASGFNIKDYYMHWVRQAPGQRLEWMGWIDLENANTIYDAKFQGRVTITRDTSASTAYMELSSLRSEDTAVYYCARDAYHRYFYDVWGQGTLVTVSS
T8 sequence (VL, as listed by the source, chain 2 of 2): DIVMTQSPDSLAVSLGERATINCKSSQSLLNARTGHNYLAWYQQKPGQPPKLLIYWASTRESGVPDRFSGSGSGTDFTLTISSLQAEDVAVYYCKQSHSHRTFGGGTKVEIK
Method: as §1, §2, §3

[9] = molecular target: T9, ADI-48650; assay: SPR Carterra avidity, yeast anti-ID
T9 construct: pH-dependent anti-CD3 antibody made in CHO cells
Method: as §1, §2, §3

[10] = molecular target: T10, ADI-76357; assay: SPR Carterra avidity, yeast anti-ID
T10 construct: anti-CD3 antibody made in CHO cells, captured by anti-human Fc
T10 sequence (VH, as listed by the source, chain 1 of 2): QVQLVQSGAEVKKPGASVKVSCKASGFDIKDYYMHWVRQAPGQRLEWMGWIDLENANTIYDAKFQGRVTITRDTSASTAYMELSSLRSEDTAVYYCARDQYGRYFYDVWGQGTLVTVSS
T10 sequence (VL, as listed by the source, chain 2 of 2): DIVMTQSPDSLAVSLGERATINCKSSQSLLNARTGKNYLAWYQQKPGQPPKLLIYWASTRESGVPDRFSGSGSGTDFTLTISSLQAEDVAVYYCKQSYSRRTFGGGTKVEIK
Method: as §1, §2, §3

[11] = molecular target: T11, ADI-76359; assay: SPR Carterra avidity, yeast anti-ID
T11 construct: anti-CD3 antibody made in CHO cells, captured by anti-human Fc
T11 sequence (VH, as listed by the source, chain 1 of 2): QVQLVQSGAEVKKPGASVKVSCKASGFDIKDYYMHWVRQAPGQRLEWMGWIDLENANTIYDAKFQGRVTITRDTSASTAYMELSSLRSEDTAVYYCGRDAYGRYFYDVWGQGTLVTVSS
T11 sequence (VL, as listed by the source, chain 2 of 2): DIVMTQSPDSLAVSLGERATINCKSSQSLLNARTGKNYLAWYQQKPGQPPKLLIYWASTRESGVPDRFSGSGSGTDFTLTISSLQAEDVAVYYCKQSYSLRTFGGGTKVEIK
Method: as §1, §2, §3

[12] = molecular target: T12, ADI-74968; assay: SPR Carterra avidity, yeast anti-ID
T12 construct: pH-dependent anti-CD3 antibody made in CHO cells
T12 sequence (VL, as listed by the source, chain 2 of 2): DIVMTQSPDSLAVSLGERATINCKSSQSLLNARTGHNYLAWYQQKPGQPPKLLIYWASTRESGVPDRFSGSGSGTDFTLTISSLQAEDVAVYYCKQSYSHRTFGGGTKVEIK
Method: as §1, §2, §3

[13] = molecular target: T13, ADI-50024; assay: SPR Carterra avidity, yeast anti-ID
T13 construct: anti-CD3 antibody made in CHO cells, captured by anti-human Fc
T13 sequence (VH, as listed by the source limits assumed, chain 1 of 2): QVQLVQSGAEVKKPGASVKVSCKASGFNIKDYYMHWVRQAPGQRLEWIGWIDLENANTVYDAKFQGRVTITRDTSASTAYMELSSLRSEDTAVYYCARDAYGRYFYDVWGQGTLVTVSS
Method: as §1, §2, §3

[14] = molecular target: T14, ADI-70327; assay: SPR Carterra avidity, yeast anti-ID
T14 construct: anti-CD3 antibody made in CHO cells, captured by anti-human Fc
Method: as §1, §2, §3

[15] = molecular target: T15, ADI-26919; assay: SPR Carterra avidity, yeast anti-ID
T15 construct: anti-CD3 antibody made in CHO cells, captured by anti-human Fc
T15 sequence (VH, as listed by the source limits assumed, chain 1 of 2): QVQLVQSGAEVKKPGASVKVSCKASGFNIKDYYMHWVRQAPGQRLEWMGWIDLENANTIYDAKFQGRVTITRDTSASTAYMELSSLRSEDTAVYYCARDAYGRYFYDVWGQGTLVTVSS
Method: as §1, §2, §3

[16] = molecular target: T16, ADI-76360; assay: SPR Carterra avidity, yeast anti-ID
T16 construct: anti-CD3 antibody made in CHO cells, captured by anti-human Fc
T16 sequence (VH, as listed by the source, chain 1 of 2): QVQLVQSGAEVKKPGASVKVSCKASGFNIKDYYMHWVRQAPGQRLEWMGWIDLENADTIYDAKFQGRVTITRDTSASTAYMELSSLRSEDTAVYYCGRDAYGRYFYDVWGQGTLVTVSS
Method: as §1, §2, §3

[17] = molecular target: T17, ADI-76361; assay: SPR Carterra avidity, yeast anti-ID
T17 construct: anti-CD3 antibody made in CHO cells, captured by anti-human Fc
Method: as §1, §2, §3

[18] = molecular target: T18, ADI-26921 IgG; assay: SPR Carterra avidity, yeast anti-ID
T18 construct: anti-CD3 IgG
T18 sequence (VH, as listed by the source limits assumed, chain 1 of 2): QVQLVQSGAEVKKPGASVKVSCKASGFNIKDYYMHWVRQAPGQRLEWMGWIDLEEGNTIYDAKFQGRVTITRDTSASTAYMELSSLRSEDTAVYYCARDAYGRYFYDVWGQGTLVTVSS
Method: as §1, §2, §3

[19] = molecular target: T19, ADI-48592; assay: SPR Carterra avidity, yeast anti-ID
T19 construct: pH-dependent anti-CD3 antibody made in CHO cells
T19 sequence (VH, as listed by the source, chain 1 of 2): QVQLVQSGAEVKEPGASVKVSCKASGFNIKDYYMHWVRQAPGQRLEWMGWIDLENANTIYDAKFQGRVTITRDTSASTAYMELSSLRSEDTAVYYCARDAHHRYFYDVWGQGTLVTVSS
T19 sequence (VL, as listed by the source, chain 2 of 2): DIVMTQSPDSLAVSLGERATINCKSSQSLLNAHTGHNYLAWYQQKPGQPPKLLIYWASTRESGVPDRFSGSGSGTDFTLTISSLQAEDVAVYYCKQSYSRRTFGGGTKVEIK
Method: as §1, §2, §3

[20] = molecular target: T20, ADI-76358; assay: SPR Carterra avidity, yeast anti-ID
T20 construct: anti-CD3 antibody made in CHO cells, captured by anti-human Fc
T20 sequence (VH, as listed by the source, chain 1 of 2): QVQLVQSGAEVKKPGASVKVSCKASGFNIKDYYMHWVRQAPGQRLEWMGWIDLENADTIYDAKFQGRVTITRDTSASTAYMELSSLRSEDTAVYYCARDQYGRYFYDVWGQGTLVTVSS
Method: as §1, §2, §3

[21] = molecular target: T21, ADI-74966; assay: SPR Carterra avidity, yeast anti-ID
T21 construct: pH-dependent anti-CD3 antibody made in CHO cells
Method: as §1, §2, §3

[22] = molecular target: T22, ADI-26913 IgG; assay: SPR Carterra avidity, yeast anti-ID
T22 construct: anti-CD3 IgG
T22 sequence (VH, as listed by the source limits assumed, chain 1 of 2): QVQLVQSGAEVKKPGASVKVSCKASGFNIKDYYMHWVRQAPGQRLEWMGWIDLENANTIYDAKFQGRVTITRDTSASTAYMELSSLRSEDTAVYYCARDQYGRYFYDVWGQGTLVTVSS
Method: as §1, §2, §3

[23] = molecular target: T23, ADI-48576; assay: SPR Carterra avidity, yeast anti-ID
T23 construct: pH-dependent anti-CD3 antibody made in CHO cells
Method: as §1, §2, §3

[24] = molecular target: T24, ADI-48587; assay: SPR Carterra avidity, yeast anti-ID
T24 construct: pH-dependent anti-CD3 antibody made in CHO cells
Method: as §1, §2, §3

[25] = molecular target: T25, ADI-26906 IgG; assay: SPR Carterra avidity, yeast anti-ID
T25 construct: anti-CD3 IgG
Method: as §1, §2, §3

[26] = molecular target: T26, ADI-26943; assay: SPR Carterra avidity, yeast anti-ID
T26 construct: anti-CD3 antibody made in CHO cells, captured by anti-human Fc
Method: as §1, §2, §3

[27] = molecular target: T27, ADI-26909; assay: SPR Carterra avidity, yeast anti-ID
T27 construct: anti-CD3 antibody made in CHO cells, captured by anti-human Fc
T27 sequence (VH, as listed by the source limits assumed, chain 1 of 2): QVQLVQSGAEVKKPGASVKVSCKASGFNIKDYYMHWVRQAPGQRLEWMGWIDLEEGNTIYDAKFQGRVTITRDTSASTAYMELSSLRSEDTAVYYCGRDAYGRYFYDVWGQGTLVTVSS
Method: as §1, §2, §3

[28] = molecular target: T28, ADI-76362; assay: SPR Carterra avidity, yeast anti-ID
T28 construct: anti-CD3 antibody made in CHO cells, captured by anti-human Fc
Method: as §1, §2, §3

[29] = molecular target: T29, ADI-26920 IgG; assay: SPR Carterra avidity, yeast anti-ID, *koff limit
T29 construct: anti-CD3 IgG
Method: as §1, §2, §3

[30] = molecular target: T30, ADI-67447; assay: SPR Carterra avidity, yeast anti-ID, *koff limit
T30 construct: anti-CD3 antibody made in CHO cells, captured by anti-human Fc
T30 sequence (VH, as listed by the source limits assumed, chain 1 of 2): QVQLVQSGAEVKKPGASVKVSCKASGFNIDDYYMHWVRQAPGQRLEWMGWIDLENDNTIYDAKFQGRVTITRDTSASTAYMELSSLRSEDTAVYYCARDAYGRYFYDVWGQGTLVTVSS
Method: as §1, §2, §3

[31] = molecular target: T31, ADI-26924; assay: SPR Carterra avidity, yeast anti-ID, *koff limit
T31 construct: anti-CD3 antibody made in CHO cells, captured by anti-human Fc
T31 sequence (VH, as listed by the source, chain 1 of 2): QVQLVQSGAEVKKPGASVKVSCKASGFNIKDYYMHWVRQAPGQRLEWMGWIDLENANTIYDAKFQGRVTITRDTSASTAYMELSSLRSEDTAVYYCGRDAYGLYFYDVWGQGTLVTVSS
Method: as §1, §2, §3

[32] = molecular target: T32, CTL-62227; assay: SPR Carterra, yeast anti-ID
T32 construct: also called odronextamab
T32 sequence (VH, as listed by the source, chain 1 of 2): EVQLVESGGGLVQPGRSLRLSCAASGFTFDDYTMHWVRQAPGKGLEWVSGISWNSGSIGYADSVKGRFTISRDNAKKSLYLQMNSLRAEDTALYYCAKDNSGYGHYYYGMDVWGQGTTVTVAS
T32 sequence (VL, as listed by the source, chain 2 of 2): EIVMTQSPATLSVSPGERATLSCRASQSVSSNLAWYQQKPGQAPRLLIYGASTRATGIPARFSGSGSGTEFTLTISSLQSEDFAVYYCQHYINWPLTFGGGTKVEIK
Method: as §1, §2, §3

[33] = molecular target: T33, CTL-62240; assay: SPR Carterra, yeast anti-ID
T33 construct: also called ONO-4685
T33 sequence (VH, as listed by the source, chain 1 of 2): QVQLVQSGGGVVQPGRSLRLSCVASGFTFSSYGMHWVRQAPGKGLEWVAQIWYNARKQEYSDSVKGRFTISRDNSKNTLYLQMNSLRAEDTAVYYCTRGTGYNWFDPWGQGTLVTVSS
T33 sequence (VL, as listed by the source, chain 2 of 2): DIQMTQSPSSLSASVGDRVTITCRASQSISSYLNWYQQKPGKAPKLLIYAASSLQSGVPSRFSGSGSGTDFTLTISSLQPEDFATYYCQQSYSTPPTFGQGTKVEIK
Method: as §1, §2, §3

[34] = molecular target: T34, CTL-62228; assay: SPR Carterra, yeast anti-ID
T34 construct: also called glofitamab
Method: as §1, §2, §3

B1: ADI-34146 (antibody, V domains shown)
VH: EVQLLESGGGLVQPGGSLRLSCAASGFTFSSYAMSWVRQAPGKGLEWVSTISGSGGSTYYADSVKGRFTISRDNSKNTLYLQMNSLRAEDTAVYYCARLGGRRGSGSSYYYYYGMDVWGQGTTVTVSS
VL: not shown
notes: anti-ID IgG
Q: Which Kd [1] does the source give for B1 here?
A: 0.93 nM

Q: What about the Kd [2] of the same binder?
A: 1.2 nM

Q: What about the Kd [3] of the same binder?
A: 0.5 nM

Q: What about the Kd [4] of the same binder?
A: 3.9 nM

Q: And the Kd [5]?
A: 1.8 nM

Q: And the Kd [6]?
A: 4.5 nM

Q: And the Kd [7]?
A: 1.8 nM

Q: And the Kd [8]?
A: 0.75 nM

Q: What about the Kd [9] of the same binder?
A: 3.3 nM

Q: And the Kd [10]?
A: 0.54 nM

Q: And the Kd [11]?
A: 0.39 nM

Q: And the Kd [12]?
A: 0.41 nM

Q: And the Kd [13]?
A: 1.1 nM

Q: And the Kd [14]?
A: 1.7 nM

Q: And the Kd [15]?
A: 0.35 nM

Q: What about the Kd [16] of the same binder?
A: 0.57 nM

Q: What about the Kd [17] of the same binder?
A: 0.24 nM

Q: What about the Kd [18] of the same binder?
A: 0.24 nM

Q: What about the Kd [19] of the same binder?
A: 16 nM

Q: And the Kd [20]?
A: 2.9 nM

Q: And the Kd [21]?
A: 0.86 nM

Q: And the Kd [22]?
A: 0.55 nM

Q: What about the Kd [23] of the same binder?
A: 12 nM

Q: And the Kd [24]?
A: 0.79 nM

Q: And the Kd [25]?
A: 0.63 nM

Q: What about the Kd [26] of the same binder?
A: 0.87 nM

Q: What about the Kd [27] of the same binder?
A: 0.64 nM

Q: And the Kd [28]?
A: 1.4 nM

Q: What about the Kd [29] of the same binder?
A: 0.29 nM

Q: What about the Kd [30] of the same binder?
A: 0.35 nM

Q: And the Kd [31]?
A: 0.25 nM

Q: Does B1 bind [32]?
A: no binding (tested: up to 200 nM)

Q: Does B1 bind [33]?
A: no binding (tested: up to 200 nM)

Q: Does B1 bind [34]?
A: no binding (tested: up to 200 nM)
